According to JP2006342173A (dated 2006):
Numbering of substitutions follows the chain as printed.

B1: 2105抗体 (antibody, V domains shown)
VH: EVQLVESGGGLVQPGRSLRLSCAASGFTFDDYAMHWVRQAPGKGLEWVSGISWNSGSLVHADSVKGRFTISRDNAKNSLYLQMNSLRAEDTALYYCARDRLFRGVRYYGMDVWGQGTTVTVSS
VL: EIVLTQSPATLSLSPGERATLSCRASQSVSSYLAWYQQKPGQAPRLLIYDASNRATGIPARFSGSGSGTDFTLTISSLEPEDFAVYYCQQRSHWLTFGGGTKVEIK
notes: Human agonistic anti-CD40 antibody, FERM BP-8024
B2: 4D11抗体 (antibody, V domains shown)
VH: QLQLQESGPGLLKPSETLSLTCTVSGGSISSPGYYGGWIRQPPGKGLEWIGSIYKSGSTYHNPSLKSRVTISVDTSKNQFSLKLSSVTAADTAVYYCTRPVVRYFGWFDPWGQGTLVTVSS
VL: AIQLTQSPSSLSASVGDRVTITCRASQGISSALAWYQQKPGKAPKLLIYDASNLESGVPSRFSGSGSGTDFTLTISSLQPEDFATYYCQQFNSYPTFGQGTKVEIK
notes: Human antagonistic anti-CD40 antibody, FERM BP-7758; Signal peptides predicted by Signal P
B3: F2-103抗体 (antibody, V domains shown)
VH: EVQLVESGGGLVQPGGSLRLSCAVSGFTFSTYWMHWVRQAPGKGLVWVSRINSDGSSTTYADSVKGRFTISRDNAKNTLYLQMNSLRAEDTAVYYCARDRVLWIGELSYYGMDVWGQGTTVTVSS
VL: DIQMTQSPSTLSASVGDRVTITCRASQSISNWLAWYQQKPGKAPKLLLYKASGLESGVPSRFSGSGSGTEFTLTINSLQPDDFATYYCQQSNSYSWTFGHGTKVEIK
notes: Human agonistic anti-CD40 antibody from hybridoma; plasmids ATCC PTA-3302 and PTA-3303; Signal peptides predicted by Signal P
B4: KM643-4-11抗体 (antibody, V domains shown)
VH: QVQLQQSGPGLVKPSQTLSFTCAISGDSVSSNSAAWNWIRQSPSRGLEWLGRTYYRSKWYKDYAVSVKSRITINPDTSKNQFSLQLNSVTPEDTAVYYCARGYYYGSGSYPYYYQMDVWGQGTTVTVSS
VL: EIVLTQSPATLSLSPGESATLSCRASQSVSSYLAWYQQKPGQAPRLLIYDASNRATGIPARFSGSGSGTDFTLTISSLEPEDFAVYYCQQRSNTFGGGTKVEIK
notes: Human agonistic anti-CD40 antibody from hybridoma; Signal peptides predicted by Signal P
B5: F5-77抗体 (antibody, V domains shown)
VH: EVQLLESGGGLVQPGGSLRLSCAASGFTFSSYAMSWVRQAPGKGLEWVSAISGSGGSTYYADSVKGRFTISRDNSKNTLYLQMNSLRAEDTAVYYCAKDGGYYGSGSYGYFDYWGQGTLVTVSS
VL: DIQMTQSPSSVSGSVGDRVTITCRASQGISSWLAWYQQKPGKAPKLLIYAGSSLQSGVPSRFSGSGFGTDFTLTISSLQPEDFATYYCQQASSFPRTFGQGTKVEIK
notes: Human agonistic anti-CD40 antibody from hybridoma; plasmids ATCC PTA-3304 and PTA-3305; Signal peptides predicted by Signal P
B6: 110抗体 (antibody, V domains shown)
VH: QVQLVESGGGVVQPGRSLRLSCAASGFTFSSYGMHWVRQAPGKGLEWVAVIWYDGSIKYYADSVKGRFTISRDNSKNTLYLQMNSLRAEDTAVYYCAREGYNILTGYFGYWGQGTLVTVSS
VL: VIWMTQSPSLLSASTGDRVTISCRMSQGISSDLAWYQQKPGKAPELLISAASTLQSGVPSRFSGSGSGTDFTLTISCLQSEDFATYYCQQYYSFPWTFGQGTKVEIK
notes: as for B4
B7: 115抗体 (antibody, V domains shown)
VH: B6 VH with Y53N
VL: B6 VL
notes: as for B4
B8: KM281-1-10抗体 (antibody, V domains shown)
VH: QVQLQESGPGLVKPSETLSLTCTVSGGSISGYYWSWIRQPPGKGLEWIGYIYYSGSTNYNPSLKSRVTISVDTSKNQFSLKLNSVTAADTAVYYCARAPLHGDYKWFHPWGQGTLVTVSS
VL: not shown
notes: Human antagonistic anti-CD40 antibody, FERM BP-7579; Signal peptides predicted by Signal P

The binders below were run against T1, ヒトCD40 (human CD40 expressed on cells) (human, UniProt P25942 21-277) (assay: screening by ELISA (human CD40 mouse FC) and FACS (Ramos cells)).
T1 construct: whole, on cells; also called Ramos細胞上のCD40; DC上のCD40
T1 sequence (P25942 21-277): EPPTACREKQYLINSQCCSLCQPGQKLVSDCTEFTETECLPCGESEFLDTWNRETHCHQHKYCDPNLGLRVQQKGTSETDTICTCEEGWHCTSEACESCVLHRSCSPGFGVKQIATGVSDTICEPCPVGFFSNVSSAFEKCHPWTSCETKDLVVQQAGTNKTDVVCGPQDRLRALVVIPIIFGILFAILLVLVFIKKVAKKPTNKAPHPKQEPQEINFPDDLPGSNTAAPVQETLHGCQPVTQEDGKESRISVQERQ

Binding result, binds:
B1
B2
B3
B4
B5
B6
B7
B8
